Measured values reported in the supplement of paper PMC10126150.
± gives the standard deviation of the averaged measurements.

Tested on: ATP
Assay: switch fluorescence ratio, 500 uM ATP over buffer (Cy3 cluster intensity, sum of 5 cycles each) (fold (ratio)); higher = stronger signal-on switching upon ATP binding; sequences stand for … in TCGTCGGCAGCGTCAGATGTGTATAAGAGACAGTTTTTTTTTTTTTTTTTTTTTTTTT…TC
Settings: aptamer strand: ATP DNA aptamer (quencher-CACCTGGGGGAGTATTGCGGAGGAAGG + anchor), 100 nM annealed; ATP concentration: 500 uM
Method in brief: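 For every switch-domain sequence, the fluorescence ratio is the mean of per-cluster values, each being summed target-cycle Cy3 intensity over summed buffer-cycle Cy3 intensity. Clusters outside 100-1000 RFU were excluded. On a modified Illumina MiSeq flow-cell, the Cy3-labelled switching-strand clusters were annealed to 100 nM quencher-labelled ATP aptamer, imaged in selection buffer and then after 15 min with 500 uM ATP at 22 °C. Five such cycles were run, with NaOH stripping and re-annealing between them.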
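Also: ATP exposure 15 min at 22 °C before imaging.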

Row | Sequence | switch fluorescence ratio
1 | TGAATGATCG | 1.07 ± 0.032
2 | TGAATGGAAT | 1.04 ± 0.047
3 | TGAATTAAGT | 1.029 ± 0.003
4 | TGAATTAGAA | 0.968 ± 0.018
5 | TGAATTTGTT | 0.995 ± 0.038
6 | TGAATTTTAA | 0.995 ± 0.042
7 | TGACAACAGC | 1.049 ± 0.0091
8 | TGACAACCGG | 1.05 ± 0.021
9 | TGACAGTAAC | 1.25 ± 0.25
10 | TGACATCTA | 1.07 ± 0.057
11 | TGACCCGGGT | 1.018 ± 0.0072
12 | TGACCGAGAA | 1.06 ± 0.028
13 | TGACGCCGAA | 1.07 ± 0.019
14 | TGACGGCGGA | 1.02 ± 0.023
15 | TGACGGGAAG | 0.9862 ± 0.0012
16 | TGACGGGGAT | 1.25 ± 0.33
17 | TGACGGGTAC | 1.87 ± 0.087
18 | TGACGTCTGG | 1.015 ± 0.0071
19 | TGACGTGCGC | 1.143 ± 0.0093
20 | TGACGTTTTG | 0.9792 ± 0.0046
21 | TGACTACGCG | 1.18 ± 0.02
22 | TGACTATGCT | 0.98 ± 0.02
23 | TGACTGGACG | 1 ± 0.028
24 | TGACTGGGCG | 1.0063 ± 0.00065
25 | TGACTGGGGT | 1.02 ± 0.068

Row | Sequence | switch fluorescence ratio
26 | TGACTGTGTG | 0.984 ± 0.017
27 | TGACTGTTTC | 1.01 ± 0.024
28 | TGACTTTTCG | 0.995 ± 0.032
29 | TGAGAAAGAG | 2.15 ± 2
30 | TGAGAAAGGA | 0.99 ± 0.028
31 | TGAGAAGCGG | 0.97 ± 0.039
32 | TGAGAAGTTT | 0.992 ± 0.023
33 | TGAGAATTTG | 0.976 ± 0.048
34 | TGAGACTTAC | 1.15 ± 0.06
35 | TGAGAGAAGG | 1.01 ± 0.014
36 | TGAGAGAGTG | 1.02 ± 0.059
37 | TGAGAGCAGG | 1.08 ± 0.025
38 | TGAGAGCGTC | 0.89 ± 0.14
39 | TGAGAGGAAG | 0.989 ± 0.018
40 | TGAGAGGATG | 0.99 ± 0.021
41 | TGAGAGGGGT | 1.05 ± 0.042
42 | TGAGAGTAGG | 0.9839 ± 0.0072
43 | TGAGAGTGCG | 0.968 ± 0.027
44 | TGAGATAAGG | 0.987 ± 0.03
45 | TGAGATAGAT | 1 ± 0.013
46 | TGAGATCGGC | 0.992 ± 0.042
47 | TGAGCAGCTG | 0.953 ± 0.058
48 | TGAGCATGAA | 1 ± 0.024
49 | TGAGCCCTTT | 1.018 ± 0.0046
50 | TGAGCCGGGA | 1 ± 0.019

Row | Sequence | switch fluorescence ratio
51 | TGAGCCTTGG | 0.995 ± 0.017
52 | TGAGCTAATG | 1.04 ± 0.043
53 | TGAGCTGGGT | 0.995 ± 0.02
54 | TGAGGAAATG | 1 ± 0.037
55 | TGAGGAGGGC | 1.02 ± 0.08
56 | TGAGGCCTAG | 1.02 ± 0.056
57 | TGAGGGACAT | 1.02 ± 0.046
58 | TGAGGGAGGT | 0.985 ± 0.03
59 | TGAGGGCAAG | 1.02 ± 0.022
60 | TGAGGGCCGA | 1.02 ± 0.13
61 | TGAGGGCGGG | 1.03 ± 0.056
62 | TGAGGGCGTT | 0.995 ± 0.031
63 | TGAGGGGGTG | 1 ± 0.029
64 | TGAGGGTACA | 0.984 ± 0.017
65 | TGAGGGTGCT | 1.04 ± 0.037
66 | TGAGGTATAT | 1.01 ± 0.015
67 | TGAGGTATGC | 0.994 ± 0.031
68 | TGAGGTCAGG | 0.982 ± 0.017
69 | TGAGGTCATT | 0.989 ± 0.028
70 | TGAGGTGGGG | 0.9887 ± 0.0027
71 | TGAGTATGGT | 1.002 ± 0.0059
72 | TGAGTATTTT | 0.992 ± 0.025
73 | TGAGTCCCGG | 1 ± 0.016
74 | TGAGTCGTGT | 0.9674 ± 0.0054
75 | TGAGTGAGGG | 1.01 ± 0.018

Row | Sequence | switch fluorescence ratio
76 | TGAGTGCAGG | 1.02 ± 0.066
77 | TGAGTGTGTT | 0.962 ± 0.026
78 | TGAGTTATG | 1.0034 ± 0.00041
79 | TGAGTTATGC | 0.953 ± 0.015
80 | TGAGTTCGCA | 1.69 ± 0.13
81 | TGAGTTGGGG | 0.967 ± 0.016
82 | TGAGTTTTTA | 0.9956 ± 0.0072
83 | TGATAAAAAT | 0.993 ± 0.027
84 | TGATAATCTT | 0.99 ± 0.028
85 | TGATAATTGT | 1.01 ± 0.034
86 | TGATACTCGC | 1.18 ± 0.12
87 | TGATAGGGGT | 1.02 ± 0.05
88 | TGATAGGTCT | 0.986 ± 0.03
89 | TGATAGTAGT | 1 ± 0.025
90 | TGATAGTCTA | 1 ± 0.068
91 | TGATATAGAG | 1 ± 0.029
92 | TGATATCTTG | 0.9862 ± 0.0028
93 | TGATATTATT | 1.02 ± 0.015
94 | TGATATTTTA | 0.986 ± 0.035
95 | TGATCAGGGA | 1.02 ± 0.021
96 | TGATCGAAGG | 0.991 ± 0.034
97 | TGATCGGGGG | 0.982 ± 0.064
98 | TGATCTGCAG | 1.016 ± 0.0077
99 | TGATGCACGG | 1.04 ± 0.021
100 | TGATGCAGAG | 1.02 ± 0.018
